The source of these data is patent US7807387B2, “Biological agent that causes IL-6 receptor release” (Meyer Pharmaceuticals LLC, priority 2003, dated 2010).

For the test, the system named is experimentally induced Asthma. Put plainly: Experimentally induced asthma (ovalbumin sensitization and aerosol challenge). It counts as in vivo, mice. As to conditions: treatment 1 h before aerosol challenge, 24 h and 48 h afterwards; lavage at 72 h. As for the experimental part:
Mice were sensitized on Days 0, 7, and 14 with 10 μg ovalbumin in 1% aluminum hydroxide. On Day 21, the mice were challenged with the allergen in aerosol form (5% wt/vol in saline). Treatment with MP8 or control was administered 1 h before the aerosol challenge, and 24 h and 48 h afterwards. On Day 24 (72 h after the challenge), lungs were ravaged under anesthesia with 2×0.5 mL buffer to recover cells in the alveolar fluid.

B1: MP8: polypeptide having the sequence of SEQ. ID NO:41 (usually with a HIS tag); cytokine receptor releasing protein expressed in E. coli (protein, listed as Homo sapiens)
chain: WIQRIRHEGNSTVYEWRTGTEPSVVERPHLEELPEQVAEDAIDWGDFGVEAVSEGTDSGISAEAAGIDWGIFPESDSKDPGGDGIDWGDDAVALQITVLEAGTQAPEGVARGPDALTLLEYTETRNQFLDELMELEIFLAQRAVELSEEADVLSVSQFQLAPAILQGQTKEKMVTMVSVLEDLIGKLTSLQLQHLFMILASPRYVDRVTEFLQQKLKQSQLLALKKELMVQKQQEALEEQAALEPKLDLLLEKTKELQKLIEADISKRYSGRPVNLMGTSL
modifications: HIS tag
notes: ID NO:41 (usually with a HIS tag); cytokine receptor releasing protein expressed in E. coli
As for B1, the proportion of eosinophils entry is listed as “substantially reduced” and the “white blood cells migrating into the alveolar fluid” value is “reduced the number of the white blood cells migrating into the alveolar fluid”.
